Measurements reported in patent US20200138970A1 (Bayer, published 2020).

How the values were obtained:
[1] = target: T1, human B7H3 on cancer cell lines (human, UniProt Q5ZPR3 29-534); test: cell-based or functional assay
T1 sequence (looked up): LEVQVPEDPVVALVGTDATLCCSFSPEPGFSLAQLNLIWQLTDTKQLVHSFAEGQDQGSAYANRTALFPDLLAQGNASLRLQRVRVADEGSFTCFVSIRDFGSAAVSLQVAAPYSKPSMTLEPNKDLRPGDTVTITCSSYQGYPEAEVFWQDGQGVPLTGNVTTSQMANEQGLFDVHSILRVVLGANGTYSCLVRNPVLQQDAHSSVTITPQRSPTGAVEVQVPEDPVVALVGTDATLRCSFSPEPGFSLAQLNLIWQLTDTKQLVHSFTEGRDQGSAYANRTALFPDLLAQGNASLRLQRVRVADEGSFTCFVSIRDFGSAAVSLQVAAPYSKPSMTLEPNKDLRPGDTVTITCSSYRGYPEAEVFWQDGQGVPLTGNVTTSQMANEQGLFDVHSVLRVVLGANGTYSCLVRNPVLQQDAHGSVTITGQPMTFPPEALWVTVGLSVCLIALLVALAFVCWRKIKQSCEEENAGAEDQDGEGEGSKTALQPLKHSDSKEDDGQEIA

[2] = target: T1, human B7H3 on cancer cell lines; test: flow cytometry on A498 cells, dose response from 10 ug/mL (1:5 dilution), FITC secondary antibody
Procedure: A dose response curve (1:5 dilution) was generated. Following incubation, 200 μL of ice-cold FACS buffer were pipetted in and the cell suspension was centrifuged at 4° C., 400 g for 4 min. The cell pellet was washed with 300 μL of ice-cold FACS buffer prior to resuspending the pellet obtained in 100 μL of FACS buffer and again incubating for 30 min on ice with secondary antibody (monoclonal anti-kappa light chains FITC antibody, Sigma, No. SAB4700605) in a 1:10 dilution. Subsequently, the cells were washed with ice-cold FACS buffer and adjusted to a cell concentration of 0.5×10⁶ cells/mL before carrying out the flow cytometry using a Guava flow cytometer (Millipore). Propidium iodide (final concentration 1 μg/mL) was used for the live staining. With the aid of the background-corrected geometric mean fluorescence values, the IC50 value of the antibody to be investigated was determined.

[3] = target: T2, human B7H2 (RnDSystems, 8206-B7) (human, UniProt O75144 19-258, limits assumed); test: ELISA, IgG captured on anti-human IgG Fc, antigen 37 ng/ml, anti-His HRP detection
T2 construct: Bought protein; His tag implied by anti-His detection
T2 sequence (looked up): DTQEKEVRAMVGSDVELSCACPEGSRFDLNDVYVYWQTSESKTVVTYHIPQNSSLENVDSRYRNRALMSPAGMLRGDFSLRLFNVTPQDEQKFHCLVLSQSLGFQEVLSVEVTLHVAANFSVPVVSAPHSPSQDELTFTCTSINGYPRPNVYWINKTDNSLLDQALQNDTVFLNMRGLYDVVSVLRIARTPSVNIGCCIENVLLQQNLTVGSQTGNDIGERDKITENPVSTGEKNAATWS
Procedure: (§1) Binding of the antibodies to human B7H3 and to human B7H2 and B7H4 was characterized using ELISAs. […] After washing once with PSB, 0.05% Tween, the plate was blocked with 100% Smart Block (Candor) for one hour at 37° C. The antibody to be tested was then attached to the plate (2 μg/ml IgG in PBS, 0.05% Tween, 10% Smart Block; 1 hour, room temperature). […] After washing three times, the plate was incubated with Amplex Red for 30 minutes and then read.

[4] = target: T3, human B7H4 (RnDSystems, 6576-B7) (human, UniProt Q7Z7D3 29-258, limits assumed); test: as above
T3 construct: Bought protein; His tag implied by anti-His detection
T3 sequence (looked up): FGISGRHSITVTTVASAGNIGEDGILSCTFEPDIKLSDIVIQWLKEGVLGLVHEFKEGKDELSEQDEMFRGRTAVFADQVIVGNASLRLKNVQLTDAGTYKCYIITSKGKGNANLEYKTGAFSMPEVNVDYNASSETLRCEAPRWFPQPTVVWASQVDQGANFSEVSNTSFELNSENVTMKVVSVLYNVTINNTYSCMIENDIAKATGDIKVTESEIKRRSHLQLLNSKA
Procedure: as §1

[5] = target: T4, TPP-3760, B7H3 long, human (R&D Systems 2318-B3/CF) (human, UniProt Q5ZPR3 27-461); test: as above
T4 construct: Bought protein; also called B7H3 (RnDSystems, 2318-B3-050/CF); human B7H3
T4 sequence: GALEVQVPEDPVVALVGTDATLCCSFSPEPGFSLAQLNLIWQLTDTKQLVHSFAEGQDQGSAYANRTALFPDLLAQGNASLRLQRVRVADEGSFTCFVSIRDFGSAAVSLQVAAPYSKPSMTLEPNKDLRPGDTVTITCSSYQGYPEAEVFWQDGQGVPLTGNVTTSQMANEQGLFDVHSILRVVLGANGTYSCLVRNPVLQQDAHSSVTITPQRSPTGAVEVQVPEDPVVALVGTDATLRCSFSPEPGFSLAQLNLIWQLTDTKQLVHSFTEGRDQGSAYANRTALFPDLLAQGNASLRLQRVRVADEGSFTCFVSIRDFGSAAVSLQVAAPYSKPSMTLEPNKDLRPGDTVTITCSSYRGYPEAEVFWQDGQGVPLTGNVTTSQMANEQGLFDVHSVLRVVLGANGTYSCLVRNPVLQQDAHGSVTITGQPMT
Procedure: as §1

## 208-isotype control (antibody)
[1]
  NCI-H292 CTG (IC50 M): 137 nM
  U251 CTG (IC50 M): 77.6 nM

B1: TPP-6515 (antibody, human IgG1, lambda, V domains shown)
VH: EVQLLESGGGLVQPGGSLRLSCAASGFTFSSYGMHWVRQVPGKGLEWVSAISGSGGTTYYADSVKGRFTISRDNSKNTLYLQMNSLRAEDTAVYYCARGGYHFLFDYWGQGTLVTVSS
VL: QSVLTQPPSASGTPGQRVTISCSGSSSNIGSNTVNWYQQLPGTAPKLLIYRNDQRLLGVPDRFSGSKSGTSASLAISGLRSEDEADYYCQSYDSSLSGWVFGGGTKLTVLG
[2]
  EC50: 0.661 nM
[3]
  Quotient signal (B7)/signal (buffer): < 1.5
[4]
  Quotient signal (B7)/signal (buffer): < 1.5
[5]
  Quotient signal (B7)/signal (buffer): 116

B2: TPP-6501 (antibody, human IgG1, lambda, V domains shown)
VH: EVQLLESGGGLVQPGGSLRLSCAASGFTFSSYGMHWVRQAPGKGLEWVSAISGSGGSTYYADSVKGRFTISRDNSKNTLYLQMNSLRAEDTAVYYCARGSNYLGMDVWGQGTLVTVSS
VL: QSVLTQPPSASGTPGQRVTISCSGSSSNIGRNIVNWYQQLPGTAPKLLIYRSNQRPSGVPDRFSGSKSGTSASLAISGLRSEDEADYYCQTWGTGWVFGGGTKLTVLG
[2]
  EC50: 1.23 nM
[3]
  Quotient signal (B7)/signal (buffer): < 1.5
[4]
  Quotient signal (B7)/signal (buffer): < 1.5
[5]
  Quotient signal (B7)/signal (buffer): 118

B3: TPP-6499 (antibody, human IgG1, lambda, V domains shown)
VH: EVQLLESGGGLVQPGGSLRLSCAASGFTFRDFYMNWIRQAPGKGLEWVSSISASGKYTYYADSVKGRFTISRDNSKNTLYLQMNSLRAEDTAVYYCAREWGYCTNDVCRNWFDPWGQGTLVTVSS
VL: QSVLTQPPSASGTPGQRVTISCSGGYSNVGGNNVNWYQQLPGTAPKLLIYGNSNRPSGVPDRFSGSKSGTSASLAISGLRSEDEADYYCQSYDSSLSGSVFGGGTKLTVLG
[2]
  EC50: 0.847 nM
[3]
  Quotient signal (B7)/signal (buffer): < 1.5
[4]
  Quotient signal (B7)/signal (buffer): < 1.5
[5]
  Quotient signal (B7)/signal (buffer): 109
